This note sets out measurements from article PMC9968290.

In general, stoichiometry N refers to a count of units in the complex or per binding partner.

Assay [1] concerns the target C-terminally truncated zebrafish ortholog of the TREK1 channel (drTREK1), residues 1-322, N95Q, N122Q (D. rerio (zebrafish)). As to the kind of experiment: cryo-EM structure; single particle cryo-EM of purified TREK1 at 3 mg/ml in DDM micelles (150 mM KCl, 20 mM Tris pH 8.0), without lipid or with POPA or POPE mixed micelles.
Assay [2] shares this target. As to the kind of experiment: native MS; TREK1 in 200 mM ammonium acetate pH 8, 0.25 mM DDM, without lipid or with 0.1 mg/ml POPA or 0.025 mg/ml POPE; static nanospray on a Q-Exactive EMR.

For “C-terminally truncated zebrafish ortholog of the TREK1 channel (drTREK1), residues 1-322, N95Q, N122Q (natural protein)”, the stoichiometry N in assay [1] and in assay [2] was 2 each time.
